{"source": "paper PMC3658131", "molecular_target": "Bd-cys-S-fluorescein conjugate (Staphylococcus aureus)", "assay": "ELISA", "data": [{"substance": "HRP-conjugated guinea pig IgG (antibody)", "values": [{"measurement": "net absorbance at 405 nm (net absorbance (405 nm))", "result": 0.91}]}, {"substance": "HRP-conjugated rabbit IgG (antibody)", "values": [{"measurement": "net absorbance at 405 nm (net absorbance (405 nm))", "result": 1.13}]}]}
